This is an account of results in article PMC4167235.

The assay deals with secretory phospholipase A2 (sPLA2) from Crotalus durissus terrificus (Crotalus durissus terrificus) (UniProt P62022). The experiment in a line: MALDI-TOF mass spectrometry.

“secretory phospholipase A2 (sPLA2) from Crotalus durissus terrificus (from UniProt P62022 17-138) (enzyme)” had a stoichiometry N of 2.
